Results on one molecule are retold here after paper PMC10590331, “Purification and Biochemical Characterization of the DNA Binding Domain of the Nitrogenase Transcriptional Activator NifA from Gluconacetobacter diazotrophicus”.

Settings in all cases: protein: recombinant; tags: N-terminal His-tag (pET28a, NheI/BamHI) removed with thrombin; label: 5' TAMRA on forward strand; blunt
Series [1] addresses T1, NifA NC-DBD (DNA binding domain without Cys pair) (Gluconacetobacter diazotrophicus, UniProt A9H5T0 530-581).
T1 sequence: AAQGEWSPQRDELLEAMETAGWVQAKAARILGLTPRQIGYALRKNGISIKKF
In words: fluorescence anisotropy; no DTT; 10 mM Tris pH 8, 60 mM NaCl, 0.2 mM MgCl2 (5 mM DTT when reducing), 900 nM probe, 0-80 µM protein, 30 min at room temperature. On the technique in general: In fluorescence polarisation assays a small probe gives low polarisation when free and higher when bound to something large.

Series [2] addresses T2, NifA 2C-DBD (DNA binding domain with upstream Cys pair) (Gluconacetobacter diazotrophicus, UniProt A9H5T0 520-581).
T2 sequence: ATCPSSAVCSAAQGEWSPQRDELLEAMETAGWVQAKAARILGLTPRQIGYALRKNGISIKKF
Put plainly: fluorescence anisotropy; reduced, 5 mM DTT; 10 mM Tris pH 8, 60 mM NaCl, 0.2 mM MgCl2 (5 mM DTT when reducing), 900 nM probe, 0-80 µM protein, 30 min at room temperature.

For series [3], the target named is T2, NifA 2C-DBD (DNA binding domain with …). Put plainly: fluorescence anisotropy; oxidized (disulfide), no DTT; 10 mM Tris pH 8, 60 mM NaCl, 0.2 mM MgCl2 (5 mM DTT when reducing), 900 nM probe, 0-80 µM protein, 30 min at room temperature.

B1: nifH-UAS duplex, TAMRA-labeled (dsDNA)
DNA 1: CGGTTTTGTCAGGCTTCGCACAAAGCCG
DNA 2: CGGCTTTGTGCGAAGCCTGACAAAACCG
The Kd is the equilibrium constant for the complex coming apart. Consider B1, for which the dissociation constant Kd in series [1] was 20 ± 5.6 µM; in series [2], 31.5 ± 8.1 µM; in series [3] it was 34.5 ± 8.4 µM.
